{"source": "patent US20200385710", "key": {"[1]": {"system": "T1, Bxb1 integrase, codon-optimized with bipartite Xenopus NLS (Mycobacteriophage Bxb1?)", "T1 sequence": "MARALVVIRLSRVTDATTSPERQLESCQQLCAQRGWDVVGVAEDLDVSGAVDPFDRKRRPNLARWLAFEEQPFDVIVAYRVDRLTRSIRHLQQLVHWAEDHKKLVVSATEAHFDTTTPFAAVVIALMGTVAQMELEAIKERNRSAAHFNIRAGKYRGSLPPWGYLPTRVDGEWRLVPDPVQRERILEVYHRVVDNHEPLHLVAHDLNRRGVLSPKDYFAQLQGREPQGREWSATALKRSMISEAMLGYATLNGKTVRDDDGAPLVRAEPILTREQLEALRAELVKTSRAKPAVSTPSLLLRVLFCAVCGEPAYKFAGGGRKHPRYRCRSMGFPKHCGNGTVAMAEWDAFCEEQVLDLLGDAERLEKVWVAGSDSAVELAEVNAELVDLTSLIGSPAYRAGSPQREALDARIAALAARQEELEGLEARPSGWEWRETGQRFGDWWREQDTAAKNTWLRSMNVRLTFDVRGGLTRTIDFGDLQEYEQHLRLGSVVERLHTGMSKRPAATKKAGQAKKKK", "experiment": "cell_activity", "details": "1 mM VPA as printed, 27.6% without VPA"}, "[2]": {"system": "Bxb1 integrase (Mycobacteriophage Bxb1?)", "experiment": "cell_activity", "details": "0.85% without integrase"}}}
{"substance": "Bxb1 attB (donor plasmid with GFP)", "values": [{"measurement": "activity (% integration)", "setting": "[1]; attB donor partner, HEK293 H11", "value": 45.2}, {"measurement": "activity (% GFP-positive cells)", "setting": "[2]; attB donor partner of attP at H11 in HEK293", "value": 19.4}]}
{"substance": "Bxb1 attP (landing pad at H11 or AAVS1 locus)", "values": [{"measurement": "activity (% integration)", "setting": "[1]; HEK293 H11 attP, 43.5% at 700 nM VPA", "value": 45.2}, {"measurement": "activity (% GFP-positive cells)", "setting": "[2]; attP x attB integration at H11 in HEK293, AAVS1 locus 15.4% (0.74% without)", "value": 19.4}]}
